Key:
Test in all cases: cell-based or functional assay
p70S6K (h) (human) = p70S6K (h) (human) (UniProt P23443)
TSSK1 (h) (human) = biological target: T1, TSSK1 (h) (human) (UniProt Q9BXA7)
T1 sequence (looked up): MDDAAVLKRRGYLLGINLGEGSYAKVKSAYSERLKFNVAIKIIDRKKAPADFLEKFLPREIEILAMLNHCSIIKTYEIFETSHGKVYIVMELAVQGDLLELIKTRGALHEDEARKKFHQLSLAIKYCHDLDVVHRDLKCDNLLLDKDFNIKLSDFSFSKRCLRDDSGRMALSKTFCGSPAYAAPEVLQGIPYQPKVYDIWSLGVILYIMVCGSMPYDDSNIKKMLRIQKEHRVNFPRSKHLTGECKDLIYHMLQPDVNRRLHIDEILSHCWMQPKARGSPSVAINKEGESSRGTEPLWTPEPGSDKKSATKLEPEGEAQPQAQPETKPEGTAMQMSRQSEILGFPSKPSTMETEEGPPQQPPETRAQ

Met(M1268T) (h) (human) = Met(M1268T) (h) (human) (UniProt P08581)
Flt3(D835Y) (h) (human) = biological target: T2, Flt3(D835Y) (h) (human) (UniProt P36888)
T2 sequence (looked up): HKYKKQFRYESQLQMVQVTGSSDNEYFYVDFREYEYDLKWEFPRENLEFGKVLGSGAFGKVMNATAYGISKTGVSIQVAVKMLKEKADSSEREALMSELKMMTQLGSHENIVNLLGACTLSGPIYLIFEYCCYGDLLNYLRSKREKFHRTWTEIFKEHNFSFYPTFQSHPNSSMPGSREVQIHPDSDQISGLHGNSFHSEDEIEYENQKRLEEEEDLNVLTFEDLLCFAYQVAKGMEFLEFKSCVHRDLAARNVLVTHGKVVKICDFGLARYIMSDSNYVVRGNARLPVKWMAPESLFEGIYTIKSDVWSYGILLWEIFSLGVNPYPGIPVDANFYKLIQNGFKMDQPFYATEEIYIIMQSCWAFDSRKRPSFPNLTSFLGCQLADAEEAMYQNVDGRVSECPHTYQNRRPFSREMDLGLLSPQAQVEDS

[1] = biological target: Hck (h) activated (human) (UniProt P08631)
TAK1 (h) (human) = biological target: T3, TAK1 (h) (human) (UniProt O43318)
T3 sequence (looked up): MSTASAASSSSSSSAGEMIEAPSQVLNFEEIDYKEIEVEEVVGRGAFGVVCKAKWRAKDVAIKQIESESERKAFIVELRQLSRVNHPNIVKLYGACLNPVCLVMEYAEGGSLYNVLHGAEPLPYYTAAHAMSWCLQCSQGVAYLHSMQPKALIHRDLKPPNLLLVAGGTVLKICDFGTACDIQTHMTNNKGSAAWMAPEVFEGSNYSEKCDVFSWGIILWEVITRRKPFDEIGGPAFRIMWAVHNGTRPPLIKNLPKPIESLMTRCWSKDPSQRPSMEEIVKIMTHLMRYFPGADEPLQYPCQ

Syk (h) (human) = Syk (h) (human) (UniProt P43405)
MLK1 (h) (human) = MLK1 (h) (human) (UniProt P80192)
Fms(Y969C) (h) (human) = biological target: T4, Fms(Y969C) (h) (human) (UniProt P07333)
T4 sequence (looked up): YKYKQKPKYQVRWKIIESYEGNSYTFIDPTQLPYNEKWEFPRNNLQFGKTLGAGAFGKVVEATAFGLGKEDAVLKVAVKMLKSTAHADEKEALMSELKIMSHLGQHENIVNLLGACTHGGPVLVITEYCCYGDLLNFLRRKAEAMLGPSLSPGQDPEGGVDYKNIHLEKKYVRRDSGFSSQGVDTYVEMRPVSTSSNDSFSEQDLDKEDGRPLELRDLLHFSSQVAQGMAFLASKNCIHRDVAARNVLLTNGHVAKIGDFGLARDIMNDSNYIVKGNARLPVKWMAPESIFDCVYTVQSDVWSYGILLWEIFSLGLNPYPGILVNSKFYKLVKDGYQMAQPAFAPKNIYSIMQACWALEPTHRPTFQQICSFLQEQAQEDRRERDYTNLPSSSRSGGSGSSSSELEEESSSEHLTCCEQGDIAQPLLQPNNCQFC

Aurora-A (h) (human) = biological target: T5, Aurora-A (h) (human) (UniProt O14965)
T5 sequence (looked up): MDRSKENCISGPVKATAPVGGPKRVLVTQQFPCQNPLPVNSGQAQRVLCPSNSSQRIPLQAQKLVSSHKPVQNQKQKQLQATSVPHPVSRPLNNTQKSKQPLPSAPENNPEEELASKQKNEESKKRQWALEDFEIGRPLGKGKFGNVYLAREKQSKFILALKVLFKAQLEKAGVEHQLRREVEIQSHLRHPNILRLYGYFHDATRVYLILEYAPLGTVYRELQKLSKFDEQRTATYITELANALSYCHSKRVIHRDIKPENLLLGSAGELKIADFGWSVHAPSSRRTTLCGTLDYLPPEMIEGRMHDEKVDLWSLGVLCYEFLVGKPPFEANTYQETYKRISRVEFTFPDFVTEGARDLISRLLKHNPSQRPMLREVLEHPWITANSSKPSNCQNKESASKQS

BrSK2 (h) (human) = biological target: T6, BrSK2 (h) (human) (UniProt Q8IWQ3)
T6 sequence (looked up): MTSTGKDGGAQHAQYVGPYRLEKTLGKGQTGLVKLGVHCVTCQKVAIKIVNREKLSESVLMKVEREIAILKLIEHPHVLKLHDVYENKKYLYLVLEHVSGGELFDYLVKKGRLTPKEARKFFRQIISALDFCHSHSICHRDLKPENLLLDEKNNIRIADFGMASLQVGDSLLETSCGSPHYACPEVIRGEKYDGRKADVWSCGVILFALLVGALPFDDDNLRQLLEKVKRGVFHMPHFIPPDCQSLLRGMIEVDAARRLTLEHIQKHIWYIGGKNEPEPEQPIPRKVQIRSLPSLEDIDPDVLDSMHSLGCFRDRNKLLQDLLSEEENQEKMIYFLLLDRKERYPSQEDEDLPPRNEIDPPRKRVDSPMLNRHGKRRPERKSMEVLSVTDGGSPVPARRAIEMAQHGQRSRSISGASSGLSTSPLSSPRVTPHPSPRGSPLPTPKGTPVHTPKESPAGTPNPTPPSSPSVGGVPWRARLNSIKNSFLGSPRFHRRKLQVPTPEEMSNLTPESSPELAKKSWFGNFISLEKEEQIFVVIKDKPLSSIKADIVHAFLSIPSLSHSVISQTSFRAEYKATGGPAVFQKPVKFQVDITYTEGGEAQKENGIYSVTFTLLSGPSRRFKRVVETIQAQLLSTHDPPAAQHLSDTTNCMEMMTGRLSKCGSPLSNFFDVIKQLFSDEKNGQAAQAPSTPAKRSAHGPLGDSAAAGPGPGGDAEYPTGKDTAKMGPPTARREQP

## MMI-0300 (peptide)
p70S6K (h) (human)
  % activity at 100 µM: 35%
TSSK1 (h) (human)
  % activity at 100 µM: 79%
Met(M1268T) (h) (human)
  % activity at 100 µM: 255%
Flt3(D835Y) (h) (human)
  % activity at 100 µM: 80%
[1]
  % activity at 100 µM: 82%
TAK1 (h) (human)
  % activity at 100 µM: 122%
Syk (h) (human)
  % activity at 100 µM: 24%
MLK1 (h) (human)
  % activity at 100 µM: 40%
Fms(Y969C) (h) (human)
  % activity at 100 µM: 72%
Aurora-A (h) (human)
  % activity at 100 µM: 92%
BrSK2 (h) (human)
  % activity at 100 µM: 83%

Source: patent US20160136234A1
